Experimental findings from US20250243281A1 are described below.

The target in one test is human insulin (human) (UniProt P01308). Kind of test: polyspecificity ELISA, coated insulin, 100 nM antibody. Background: In an ELISA, binding on a coated surface is turned into a signal by an enzyme label.
A further test deals with BSA (bovine) (UniProt P02769). Kind of test: polyspecificity ELISA, BSA-blocked control wells, 100 nM antibody.
The target in a further test is FcRn (UniProt P55899). Kind of test: BLI Octet, biotinylated FcRn on streptavidin sensor, pH 5.0, global 1:1 fit. In general terms: BLI is a label-free optical method that tracks binding on a fibre tip over time.
FcRn, sequence (P55899 24-297 limits assumed, form in doubt, chain 1 of 2): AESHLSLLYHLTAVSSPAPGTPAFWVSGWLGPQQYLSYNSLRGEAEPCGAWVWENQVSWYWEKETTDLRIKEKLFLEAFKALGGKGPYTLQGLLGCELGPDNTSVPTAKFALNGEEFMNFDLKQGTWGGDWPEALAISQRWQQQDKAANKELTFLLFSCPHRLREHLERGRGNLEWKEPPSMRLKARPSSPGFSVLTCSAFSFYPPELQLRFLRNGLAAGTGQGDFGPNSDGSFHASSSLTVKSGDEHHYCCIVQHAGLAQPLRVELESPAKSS
FcRn, sequence (chain, as listed by the source limits assumed, form in doubt, chain 2 of 2): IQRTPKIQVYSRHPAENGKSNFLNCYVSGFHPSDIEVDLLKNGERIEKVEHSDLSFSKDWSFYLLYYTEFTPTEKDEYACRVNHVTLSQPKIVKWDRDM

human insulin (human), sequence (P01308 25-54 limits assumed, chain 1 of 2): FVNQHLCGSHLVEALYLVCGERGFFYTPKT
human insulin (human), sequence (P01308 90-110 limits assumed, chain 2 of 2): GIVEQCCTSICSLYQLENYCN
BSA (bovine), sequence (P02769 25-607 limits assumed): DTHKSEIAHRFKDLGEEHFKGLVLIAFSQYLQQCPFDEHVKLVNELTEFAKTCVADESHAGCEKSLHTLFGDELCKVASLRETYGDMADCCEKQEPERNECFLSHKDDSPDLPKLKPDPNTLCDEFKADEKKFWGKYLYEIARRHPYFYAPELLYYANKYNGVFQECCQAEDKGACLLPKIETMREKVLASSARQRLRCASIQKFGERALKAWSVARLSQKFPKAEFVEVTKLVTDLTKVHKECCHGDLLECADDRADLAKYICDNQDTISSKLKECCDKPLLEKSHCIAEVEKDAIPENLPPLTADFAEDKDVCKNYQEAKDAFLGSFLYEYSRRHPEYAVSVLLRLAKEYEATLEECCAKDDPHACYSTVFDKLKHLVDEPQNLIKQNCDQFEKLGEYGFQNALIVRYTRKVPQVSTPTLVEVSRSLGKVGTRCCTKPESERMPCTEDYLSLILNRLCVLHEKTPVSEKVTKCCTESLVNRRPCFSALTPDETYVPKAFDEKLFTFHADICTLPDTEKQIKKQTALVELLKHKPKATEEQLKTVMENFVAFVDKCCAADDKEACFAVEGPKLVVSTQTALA

In the case of Ustekinumab (antibody), the A450 nm in the test with human insulin (human) worked out at 0.16; in the test with BSA (bovine) it was 0.1. Moreover, the Norm (signal over AdalimumAb) with human insulin (human) worked out at 2.29 fold.
For orientation: Kd means the equilibrium constant for the complex coming apart. In turn, wild type human IgG1 antibody returned a Kd with FcRn of 130 pM.
